Assay results as given in the supplement of paper PMC10065799, “High-throughput profiling of sequence recognition by tyrosine kinases and SH2 domains using bacterial peptide display” (eLife, 2023).

Experiments:
Fes = Fes (UniProt P07332); assay: phosphorylation enrichment, bacterial display (enrichment ratio); higher = better substrate or ligand; peptides without Tyr show the background
Fyn = Fyn (UniProt P06241); assay: as above
Fer (mouse) = assay: as above
AncSZ = assay: as above
MERTK = MERTK (UniProt Q12866); assay: as above
MERTK, sequence (Q12866 whole entry, looked up): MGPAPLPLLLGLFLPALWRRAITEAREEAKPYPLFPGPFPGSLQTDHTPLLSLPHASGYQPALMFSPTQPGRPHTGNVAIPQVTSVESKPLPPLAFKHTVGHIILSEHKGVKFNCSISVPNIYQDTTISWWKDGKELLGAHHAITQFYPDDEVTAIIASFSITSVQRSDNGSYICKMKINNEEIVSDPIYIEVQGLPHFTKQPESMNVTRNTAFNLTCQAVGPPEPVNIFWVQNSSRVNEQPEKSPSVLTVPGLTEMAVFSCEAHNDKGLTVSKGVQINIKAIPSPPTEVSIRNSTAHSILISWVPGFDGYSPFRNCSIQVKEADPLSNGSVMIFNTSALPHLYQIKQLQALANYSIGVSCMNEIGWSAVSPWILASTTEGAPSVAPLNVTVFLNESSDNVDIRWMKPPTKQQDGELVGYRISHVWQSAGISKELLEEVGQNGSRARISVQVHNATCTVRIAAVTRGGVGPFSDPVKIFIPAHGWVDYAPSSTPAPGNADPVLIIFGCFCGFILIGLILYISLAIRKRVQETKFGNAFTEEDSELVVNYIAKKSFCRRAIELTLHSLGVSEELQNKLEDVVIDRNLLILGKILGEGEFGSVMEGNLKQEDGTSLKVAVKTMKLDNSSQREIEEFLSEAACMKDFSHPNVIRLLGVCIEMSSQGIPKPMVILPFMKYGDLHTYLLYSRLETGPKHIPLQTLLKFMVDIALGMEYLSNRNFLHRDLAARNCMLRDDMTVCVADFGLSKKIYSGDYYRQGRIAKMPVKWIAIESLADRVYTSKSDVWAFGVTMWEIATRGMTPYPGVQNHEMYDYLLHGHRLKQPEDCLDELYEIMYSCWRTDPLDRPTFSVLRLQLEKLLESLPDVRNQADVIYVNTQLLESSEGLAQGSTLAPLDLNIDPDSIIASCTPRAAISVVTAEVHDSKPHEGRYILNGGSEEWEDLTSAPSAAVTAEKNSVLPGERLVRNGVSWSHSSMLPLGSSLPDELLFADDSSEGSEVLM

Jak2 = Jak2 (UniProt O60674); assay: as above
FGFR3 = FGFR3 (UniProt P22607); assay: as above
Hck = Hck (UniProt P08631); assay: as above
Hck, sequence (P08631 whole entry, looked up): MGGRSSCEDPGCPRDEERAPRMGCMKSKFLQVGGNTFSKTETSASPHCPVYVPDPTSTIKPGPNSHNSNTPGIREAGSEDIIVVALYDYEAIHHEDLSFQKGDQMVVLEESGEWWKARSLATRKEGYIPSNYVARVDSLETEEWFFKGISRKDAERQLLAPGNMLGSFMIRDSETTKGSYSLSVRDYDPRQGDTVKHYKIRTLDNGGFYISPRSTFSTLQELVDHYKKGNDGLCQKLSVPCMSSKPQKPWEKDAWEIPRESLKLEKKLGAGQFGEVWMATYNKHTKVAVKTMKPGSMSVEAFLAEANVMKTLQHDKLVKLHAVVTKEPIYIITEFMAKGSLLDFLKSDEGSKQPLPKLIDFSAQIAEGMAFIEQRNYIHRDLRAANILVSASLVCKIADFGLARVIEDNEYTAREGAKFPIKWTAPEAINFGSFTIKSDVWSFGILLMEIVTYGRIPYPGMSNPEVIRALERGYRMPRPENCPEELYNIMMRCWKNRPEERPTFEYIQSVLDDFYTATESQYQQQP

EPHB1 = EPHB1 (UniProt P54762); assay: as above
EPHB1, sequence (P54762 whole entry, looked up): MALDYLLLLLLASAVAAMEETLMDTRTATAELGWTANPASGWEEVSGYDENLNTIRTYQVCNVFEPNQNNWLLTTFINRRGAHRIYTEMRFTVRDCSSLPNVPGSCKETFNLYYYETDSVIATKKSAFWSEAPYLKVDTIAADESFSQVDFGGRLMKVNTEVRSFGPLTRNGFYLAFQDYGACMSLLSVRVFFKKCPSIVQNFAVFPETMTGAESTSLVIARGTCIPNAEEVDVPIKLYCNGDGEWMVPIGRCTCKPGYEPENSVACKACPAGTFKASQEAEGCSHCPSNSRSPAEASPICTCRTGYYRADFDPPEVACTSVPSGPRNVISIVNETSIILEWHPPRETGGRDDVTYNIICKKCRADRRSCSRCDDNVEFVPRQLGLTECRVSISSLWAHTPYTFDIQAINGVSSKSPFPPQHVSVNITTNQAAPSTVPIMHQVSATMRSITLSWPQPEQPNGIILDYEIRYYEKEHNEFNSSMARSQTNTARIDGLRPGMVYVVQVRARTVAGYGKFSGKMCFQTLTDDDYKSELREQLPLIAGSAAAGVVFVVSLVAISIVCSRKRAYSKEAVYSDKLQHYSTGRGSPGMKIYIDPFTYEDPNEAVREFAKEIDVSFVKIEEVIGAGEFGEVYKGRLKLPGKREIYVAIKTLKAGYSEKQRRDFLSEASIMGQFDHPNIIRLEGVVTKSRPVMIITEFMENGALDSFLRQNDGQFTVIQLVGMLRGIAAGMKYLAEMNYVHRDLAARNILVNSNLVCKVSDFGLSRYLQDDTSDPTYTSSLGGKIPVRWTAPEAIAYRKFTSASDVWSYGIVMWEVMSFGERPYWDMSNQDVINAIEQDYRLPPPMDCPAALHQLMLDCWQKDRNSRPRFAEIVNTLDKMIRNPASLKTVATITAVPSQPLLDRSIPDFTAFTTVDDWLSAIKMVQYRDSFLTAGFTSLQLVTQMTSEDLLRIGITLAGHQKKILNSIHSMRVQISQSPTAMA

FGFR1 = FGFR1 (UniProt P11362); assay: as above
FGFR1, sequence (P11362 whole entry, looked up): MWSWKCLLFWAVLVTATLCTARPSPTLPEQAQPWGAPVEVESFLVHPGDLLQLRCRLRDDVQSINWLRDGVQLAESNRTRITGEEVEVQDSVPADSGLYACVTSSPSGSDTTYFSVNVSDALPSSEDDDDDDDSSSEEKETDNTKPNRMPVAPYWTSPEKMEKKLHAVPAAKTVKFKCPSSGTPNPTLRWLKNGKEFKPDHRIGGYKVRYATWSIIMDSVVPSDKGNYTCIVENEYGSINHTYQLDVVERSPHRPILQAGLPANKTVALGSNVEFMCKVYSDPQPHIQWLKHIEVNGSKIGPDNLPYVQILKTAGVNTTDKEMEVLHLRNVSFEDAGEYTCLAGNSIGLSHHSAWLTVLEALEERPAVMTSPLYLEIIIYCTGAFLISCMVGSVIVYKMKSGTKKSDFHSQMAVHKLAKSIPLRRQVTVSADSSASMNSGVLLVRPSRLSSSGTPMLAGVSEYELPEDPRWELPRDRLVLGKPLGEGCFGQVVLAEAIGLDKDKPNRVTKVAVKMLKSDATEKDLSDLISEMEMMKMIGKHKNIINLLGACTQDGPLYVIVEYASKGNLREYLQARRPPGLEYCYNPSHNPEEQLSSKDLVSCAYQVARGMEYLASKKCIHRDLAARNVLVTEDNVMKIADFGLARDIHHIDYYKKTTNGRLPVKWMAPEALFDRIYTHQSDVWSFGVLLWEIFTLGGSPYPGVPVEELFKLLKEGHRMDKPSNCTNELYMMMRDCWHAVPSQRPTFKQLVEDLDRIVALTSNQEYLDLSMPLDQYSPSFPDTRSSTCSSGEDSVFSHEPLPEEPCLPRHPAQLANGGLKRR

c-Src = assay: as above
EPHB2 = EPHB2 (UniProt P29323); assay: as above
EPHB2, sequence (P29323 whole entry, looked up): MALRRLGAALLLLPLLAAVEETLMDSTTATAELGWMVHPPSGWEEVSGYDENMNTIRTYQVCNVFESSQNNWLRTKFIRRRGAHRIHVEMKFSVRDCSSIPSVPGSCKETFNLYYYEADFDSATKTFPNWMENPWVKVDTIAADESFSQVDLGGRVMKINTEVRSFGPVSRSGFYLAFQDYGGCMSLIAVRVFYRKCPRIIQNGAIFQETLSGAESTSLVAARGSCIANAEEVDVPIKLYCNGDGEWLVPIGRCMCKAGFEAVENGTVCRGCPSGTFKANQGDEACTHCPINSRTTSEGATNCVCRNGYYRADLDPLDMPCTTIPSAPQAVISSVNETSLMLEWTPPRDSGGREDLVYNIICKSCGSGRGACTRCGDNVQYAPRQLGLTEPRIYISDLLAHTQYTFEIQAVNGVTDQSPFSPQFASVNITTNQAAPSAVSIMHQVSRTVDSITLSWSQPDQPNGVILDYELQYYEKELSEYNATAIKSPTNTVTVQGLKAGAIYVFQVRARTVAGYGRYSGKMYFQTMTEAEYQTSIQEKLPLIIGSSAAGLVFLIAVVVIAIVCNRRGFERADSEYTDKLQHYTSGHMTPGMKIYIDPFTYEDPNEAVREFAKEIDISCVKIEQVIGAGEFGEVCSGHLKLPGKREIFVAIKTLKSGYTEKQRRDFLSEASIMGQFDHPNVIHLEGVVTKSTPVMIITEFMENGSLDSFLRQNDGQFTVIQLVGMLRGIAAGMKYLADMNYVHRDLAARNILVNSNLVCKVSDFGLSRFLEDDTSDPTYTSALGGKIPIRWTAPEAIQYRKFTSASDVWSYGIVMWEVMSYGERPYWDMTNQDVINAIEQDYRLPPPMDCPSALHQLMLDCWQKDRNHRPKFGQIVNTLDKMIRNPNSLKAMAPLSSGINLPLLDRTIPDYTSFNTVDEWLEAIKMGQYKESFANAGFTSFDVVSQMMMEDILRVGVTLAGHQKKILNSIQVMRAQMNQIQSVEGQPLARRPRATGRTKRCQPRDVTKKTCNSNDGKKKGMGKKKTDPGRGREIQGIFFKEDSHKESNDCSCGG

c-Abl (mouse) = assay: as above
SHP2-C SH2 = assay: SH2 binding enrichment of the phosphorylated peptide, bacterial display (enrichment ratio); higher = better substrate or ligand; peptides without Tyr show the background
c-Src SH2 = assay: as above
Grb2 SH2 = Grb2 SH2 (UniProt P62993); assay: as above
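Wherever SH2 binding enrichment of the phosphorylated peptide, bacterial display is given: peptide library displayed on the E. coli surface as eCPX fusions, selected cells deep-sequenced, score is each peptide's frequency after selection divided by its frequency in the input.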
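Wherever phosphorylation enrichment, bacterial display is given: 11-residue human phosphosite peptides and single-mutation variants displayed on the E. coli surface, counted by deep sequencing, each peptide's frequency after selection divided by its frequency in the unselected input library; frequency after pTyr selection over input frequency; kinase dosed for 20-30% of maximal phosphorylation in three min.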

Fyn, sequence (P06241 whole entry, looked up): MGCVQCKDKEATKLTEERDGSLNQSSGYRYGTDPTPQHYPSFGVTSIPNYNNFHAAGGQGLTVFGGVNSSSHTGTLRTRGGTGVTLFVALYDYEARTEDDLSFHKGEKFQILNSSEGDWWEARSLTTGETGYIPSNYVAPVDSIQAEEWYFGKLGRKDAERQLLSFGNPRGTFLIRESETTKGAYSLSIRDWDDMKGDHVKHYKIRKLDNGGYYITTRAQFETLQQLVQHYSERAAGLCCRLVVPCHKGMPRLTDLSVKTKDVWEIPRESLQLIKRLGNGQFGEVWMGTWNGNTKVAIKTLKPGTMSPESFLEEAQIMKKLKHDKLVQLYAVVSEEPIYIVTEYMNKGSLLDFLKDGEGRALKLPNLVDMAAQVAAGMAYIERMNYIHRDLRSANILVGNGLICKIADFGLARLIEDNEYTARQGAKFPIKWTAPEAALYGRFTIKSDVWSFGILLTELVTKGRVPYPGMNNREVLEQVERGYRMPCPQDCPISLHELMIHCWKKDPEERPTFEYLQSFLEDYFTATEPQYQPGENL

| Sequence | phosphorylation enrichment (Fes) | phosphorylation enrichment (Fyn) | phosphorylation enrichment (Fer (mouse)) | phosphorylation enrichment (AncSZ) | phosphorylation enrichment (MERTK) | phosphorylation enrichment (Jak2) | phosphorylation enrichment (FGFR3) | phosphorylation enrichment (Hck) | phosphorylation enrichment (EPHB1) | phosphorylation enrichment (FGFR1) | phosphorylation enrichment (c-Src) | phosphorylation enrichment (EPHB2) | phosphorylation enrichment (c-Abl (mouse)) | SH2 binding enrichment (SHP2-C SH2) | SH2 binding enrichment (c-Src SH2) | SH2 binding enrichment (Grb2 SH2) |
| --- | --- | --- | --- | --- | --- | --- | --- | --- | --- | --- | --- | --- | --- | --- | --- | --- |
| EFQKKYSDADI [CKAP5_Y1860_K1857Q_YF] | 0.921 | 0.422 | 0.378 | 0.837 | 0.344 | 0.594 | 0.544 | 0.487 | 0.399 | 0.442 | 0.35 | 0.383 | 0.745 | 0.59 | 0.459 | 0.772 |
| ATGLIYIGSHD [AASDH_Y870_T865A] | 1.15 | 0.427 | 0.52 | 0.827 | 0.543 | 0.809 | 0.684 | 0.469 | 0.724 | 0.427 | 0.492 | 0.724 | 0.881 | 0.526 | 0.598 | 0.759 |
| VIEYSYTSADG [DHCR7_Y382_C380Y] | 1.19 | 0.497 | 0.538 | 1.34 | 0.365 | 0.897 | 0.82 | 0.557 | 0.699 | 0.711 | 0.536 | 0.633 | 0.686 | 3.63 | 6.21 | 0.927 |
| YTHSDYQYSQR [PKP2_Y166] | 0.594 | 0.403 | 0.42 | 0.892 | 0.474 | 0.757 | 0.507 | 0.391 | 0.479 | 0.467 | 0.434 | 0.482 | 0.444 | 0.638 | 0.595 | 0.785 |
| DFCDLYGGEKF [PTPN11_Y66_Y63C_YF] | 1.33 | 1.35 | 0.672 | 1.03 | 0.54 | 0.908 | 0.832 | 1.76 | 0.511 | 0.575 | 2.78 | 0.564 | 0.833 | 0.75 | 0.706 | 1.02 |
| CEHRGCLFLAI [TEK_Y897_Y897C_YF] | 1.13 | 0.334 | 0.421 | 1.02 | 0.298 | 0.797 | 0.624 | 0.38 | 0.554 | 0.455 | 0.282 | 0.468 | 0.601 | 0.974 | 0.751 | 0.934 |
| TSNQEYLFLSM [FGFR1_Y766_D768Y_YF] | 1.09 | 0.574 | 0.557 | 1.21 | 0.469 | 1.06 | 3.32 | 0.572 | 0.765 | 5.2 | 0.488 | 0.721 | 0.813 | 0.563 | 0.358 | 0.877 |
| VTRLWYPVCFG [ITK_Y336_R335W] | 1.35 | 0.502 | 0.509 | 1.17 | 0.412 | 1.02 | 1.36 | 0.488 | 0.66 | 1.11 | 0.403 | 0.699 | 0.89 | 0.936 | 0.745 | 1.07 |
| VDGSVYKLHPS [GCK_Y413] | 0.655 | 2.64 | 0.642 | 0.581 | 0.424 | 0.735 | 0.583 | 1.03 | 0.467 | 0.536 | 3.28 | 0.543 | 0.614 | 1.01 | 0.488 | 0.755 |
| RVILRYVNPGT [LAMA3_Y791] | 1.13 | 0.591 | 0.606 | 1.06 | 0.385 | 0.947 | 0.883 | 0.561 | 0.838 | 0.538 | 0.448 | 0.666 | 0.663 | 0.632 | 0.717 | 1.44 |
| AEMTGYVMTRW [MAPK13_Y182_V184M] | 1.23 | 0.493 | 0.537 | 1.29 | 0.364 | 1.11 | 0.885 | 0.561 | 0.656 | 0.653 | 0.397 | 0.578 | 0.709 | 0.594 | 0.467 | 0.67 |
| EGTATYAAAIL [JUP_Y644_V648I] | 0.872 | 1.25 | 1.57 | 0.857 | 0.534 | 0.795 | 0.586 | 1.21 | 0.884 | 0.476 | 1.25 | 1.76 | 0.976 | 0.429 | 0.412 | 0.82 |
| DVLVEYQEEGR [GNS_Y416_G418E] | 1.21 | 0.593 | 0.578 | 1.32 | 0.51 | 1.05 | 0.884 | 0.661 | 0.634 | 0.59 | 0.496 | 0.617 | 0.642 | 0.696 | 0.505 | 0.894 |
| CPTIHYNFMCN [TP53_Y234_T230P_YF] | 1.17 | 0.557 | 0.646 | 1.09 | 0.501 | 0.916 | 0.79 | 0.655 | 0.576 | 0.687 | 0.603 | 0.596 | 0.757 | 1.97 | 2.71 | 1.41 |
| GLDGSYLLTDS [SH2D1A_Y29_R32T] | 0.863 | 0.423 | 0.455 | 0.864 | 0.369 | 0.697 | 0.604 | 0.435 | 0.491 | 0.483 | 0.469 | 0.541 | 0.551 | 0.648 | 0.505 | 0.683 |
| RDMMDYMLQGV [CYP21A2_Y259] | 1.19 | 0.673 | 0.612 | 1.2 | 0.488 | 1.63 | 0.869 | 0.581 | 1.34 | 0.73 | 1.09 | 0.827 | 0.962 | 0.997 | 0.531 | 0.812 |
| IFHLSYHHNCE [PDE6B_Y227_L228H_YF] | 1.18 | 0.522 | 0.517 | 1.15 | 0.381 | 0.831 | 0.694 | 0.478 | 0.567 | 0.499 | 0.455 | 0.635 | 0.588 | 1.16 | 0.873 | 1.14 |

| Sequence | phosphorylation enrichment (Fes) | phosphorylation enrichment (Fyn) | phosphorylation enrichment (Fer (mouse)) | phosphorylation enrichment (AncSZ) | phosphorylation enrichment (MERTK) | phosphorylation enrichment (Jak2) | phosphorylation enrichment (FGFR3) | phosphorylation enrichment (Hck) | phosphorylation enrichment (EPHB1) | phosphorylation enrichment (FGFR1) | phosphorylation enrichment (c-Src) | phosphorylation enrichment (EPHB2) | phosphorylation enrichment (c-Abl (mouse)) | SH2 binding enrichment (SHP2-C SH2) | SH2 binding enrichment (c-Src SH2) | SH2 binding enrichment (Grb2 SH2) |
| --- | --- | --- | --- | --- | --- | --- | --- | --- | --- | --- | --- | --- | --- | --- | --- | --- |
| QCTSAYPLQPE [NANS_Y188] | 1.46 | 0.832 | 0.675 | 1.51 | 0.682 | 1.65 | 0.942 | 0.623 | 0.719 | 0.616 | 0.728 | 0.813 | 2.7 | 1.09 | 0.594 | 1.06 |
| PRAEWYRDDLL [MYOM2_Y317_V321L] | 1.4 | 0.612 | 0.502 | 1.49 | 0.511 | 0.952 | 0.626 | 0.681 | 0.692 | 0.591 | 0.575 | 0.726 | 0.798 | 0.716 | 0.686 | 1.15 |
| RAEAPYLLVSN [LRIG1_Y1054_Q1053P] | 0.775 | 0.654 | 0.699 | 0.655 | 0.456 | 0.748 | 1.18 | 0.564 | 0.4 | 1.72 | 1.79 | 0.36 | 0.556 | 0.645 | 0.695 | 0.847 |
| NTGDYCDLYGG [PTPN11_Y63_Y63C] | 1.16 | 2.26 | 1.48 | 2.71 | 0.838 | 1.04 | 4.75 | 3.78 | 9.45 | 7.05 | 2.91 | 11.3 | 0.877 | 0.747 | 0.988 | 1.01 |
| RLLRGYRQDAY [HLA-A_Y137_F133L] | 0.777 | 0.769 | 0.653 | 0.985 | 0.694 | 0.802 | 0.519 | 0.645 | 0.374 | 0.608 | 0.537 | 0.611 | 0.67 | 0.593 | 0.437 | 0.638 |
| PKSWNYELPAT [PROM1_Y34_A31S] | 1.45 | 1.13 | 1.06 | 2.37 | 1.07 | 0.658 | 1.65 | 1.26 | 1.67 | 1.39 | 0.448 | 1.67 | 0.605 | 1.02 | 0.772 | 0.618 |
| KELSSYKHLTL [SLIT2_Y776_N775S] | 0.53 | 0.427 | 0.497 | 0.556 | 0.404 | 0.491 | 0.406 | 0.445 | 0.315 | 0.393 | 0.451 | 0.38 | 0.511 | 0.497 | 0.481 | 0.757 |
| SVVVPYESPEV [TP53_Y220_P222S] | 1.13 | 0.578 | 0.488 | 1.36 | 0.463 | 0.867 | 0.647 | 0.566 | 0.57 | 0.561 | 0.509 | 0.609 | 0.73 | 0.689 | 1.66 | 0.972 |
| EFITRYIASLK [PSMA7_Y110_YF] | 0.806 | 0.495 | 0.454 | 0.84 | 0.475 | 0.695 | 0.536 | 0.436 | 0.585 | 0.419 | 0.435 | 0.506 | 0.648 | 0.72 | 0.873 | 1.32 |
| QEVLEYFMKQM [PIK3CA_Y1038_A1035V] | 1.94 | 0.999 | 0.719 | 2.18 | 0.68 | 2.27 | 1.68 | 0.95 | 1.15 | 0.954 | 0.963 | 0.993 | 1.31 | 0.584 | 0.479 | 0.663 |
| ATRDVYNPFET [SCAMP3_Y41_L38R] | 1.03 | 1.08 | 0.457 | 0.835 | 0.485 | 0.901 | 0.598 | 1.06 | 0.454 | 0.54 | 1.48 | 0.454 | 0.617 | 0.658 | 0.427 | 0.703 |
| MEVGQYFFVKC [CYBB_Y324_I325F] | 1.69 | 0.551 | 0.801 | 2.28 | 1.13 | 2.56 | 4.7 | 0.719 | 0.861 | 4.99 | 0.667 | 0.8 | 1.39 | 0.61 | 0.44 | 0.716 |
| KTDKKYLMIEE [BAG3_Y451] | 1.11 | 0.477 | 0.647 | 0.867 | 0.424 | 0.96 | 0.746 | 0.516 | 0.436 | 0.463 | 0.532 | 0.635 | 0.807 | 0.573 | 0.473 | 0.762 |
| VDSNPYSRLMA [UBA5_Y53] | 0.657 | 0.756 | 1.04 | 0.608 | 0.524 | 0.47 | 0.533 | 1.72 | 0.465 | 0.468 | 1.16 | 0.488 | 0.469 | 3.31 | 1.57 | 0.699 |
| RRDRDYTNLPS [CSF1R_Y923_E920D] | 0.893 | 0.551 | 0.64 | 1.15 | 0.442 | 0.639 | 0.696 | 0.673 | 0.604 | 0.815 | 0.545 | 0.682 | 1.65 | 0.677 | 1.45 | 1.87 |
| SSTAMYSAAGR [PSMB1_Y8_P11A] | 0.455 | 0.403 | 0.442 | 0.451 | 0.511 | 0.458 | 0.342 | 0.755 | 0.35 | 0.512 | 0.424 | 0.364 | 0.444 | 0.609 | 0.774 | 0.897 |
